Reference: patent EP1516629B1

Tests used:
human CD18 (human) = human CD18 (human) (UniProt P05107); assay: cell-based or functional assay
rhesus CD18 (rhesus) [1] = biological target: rhesus CD18 (rhesus) (UniProt H9Z8N5); assay: cell-based or functional assay
rhesus CD18 (rhesus) [2] = biological target: rhesus CD18 (rhesus) (UniProt H9Z8N5); assay: saturation binding, rhesus leukocytes, donor 1, Kd(app)
rhesus CD18 (rhesus) [3] = biological target: rhesus CD18 (rhesus) (UniProt H9Z8N5); assay: saturation binding, rhesus leukocytes, donor 2, Kd(app)

human CD18 (human), sequence (P05107 23-769): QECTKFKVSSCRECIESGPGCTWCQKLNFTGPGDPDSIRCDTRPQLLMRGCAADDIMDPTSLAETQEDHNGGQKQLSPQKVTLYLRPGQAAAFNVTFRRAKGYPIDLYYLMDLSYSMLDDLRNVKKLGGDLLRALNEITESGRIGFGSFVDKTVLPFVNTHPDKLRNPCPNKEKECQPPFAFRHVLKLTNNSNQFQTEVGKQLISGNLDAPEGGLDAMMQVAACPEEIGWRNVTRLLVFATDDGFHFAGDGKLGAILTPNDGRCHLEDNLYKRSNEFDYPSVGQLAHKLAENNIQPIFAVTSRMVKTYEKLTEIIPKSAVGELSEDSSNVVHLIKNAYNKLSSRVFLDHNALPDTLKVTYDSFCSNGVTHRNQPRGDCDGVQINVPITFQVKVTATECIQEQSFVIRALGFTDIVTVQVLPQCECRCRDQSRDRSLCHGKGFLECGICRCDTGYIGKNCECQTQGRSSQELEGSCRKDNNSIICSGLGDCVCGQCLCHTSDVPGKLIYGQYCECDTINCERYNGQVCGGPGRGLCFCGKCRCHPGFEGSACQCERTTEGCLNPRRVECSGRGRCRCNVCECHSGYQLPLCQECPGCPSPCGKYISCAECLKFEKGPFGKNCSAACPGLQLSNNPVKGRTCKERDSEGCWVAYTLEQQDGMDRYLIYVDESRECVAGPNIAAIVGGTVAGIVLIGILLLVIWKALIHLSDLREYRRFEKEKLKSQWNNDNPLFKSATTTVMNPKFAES

IC50, blocking of cell adhesion, Rh/HuCD11a:HuK (human CD18 (human)): 1.4 nM
IC50, blocking of cell adhesion, RhLy:HuICAM (rhesus CD18 (rhesus) [1]): 1.2 nM
IC50, blocking of cell adhesion, RhLy:HuK (rhesus CD18 (rhesus) [1]): 1.6 nM
Kd (rhesus CD18 (rhesus) [2]): 3.9 nM
Kd (rhesus CD18 (rhesus) [3]): 4.5 nM
Substance: murine anti-human CD18 antibody MHM23
